From the supplement of paper PMC5998384

Columns and labels:
HeLa Kyoto [1] = assay: melting temperature (median over replicates), in situ; higher = more thermally stable
HeLa Kyoto [2] = assay: thermal stability score vs G1/S (z-score of summed log2 fold changes over temperatures); higher = more thermally stable than in G1/S
HeLa Kyoto [3] = assay: solubility in G1/S (NP-40 vs SDS abundance) (log2 ratio); higher = more soluble; details: cell cycle stage: G1/S
HeLa Kyoto [4] = assay: solubility change mitosis vs G1/S (difference of NP-40 vs SDS log2 ratios) (log2 ratio difference); higher = more soluble in mitosis
[5] = cell cycle stage: early G1 (4.5 h after nocodazole release)
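Wherever melting temperature (median over replicates), in situ is given: HeLa Kyoto cells synchronized by double thymidine or nocodazole block, proteins quantified by TMT10plex mass spectrometry, three independent biological replicates.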
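Wherever solubility change mitosis vs G1/S (difference of NP-40 vs SDS log2 ratios) is given: synchronized HeLa Kyoto cells (double thymidine block for G1/S, nocodazole release for mitosis), protein amounts in NP-40 versus SDS lysates quantified by mass spectrometry, three biological replicates.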
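Wherever solubility in G1/S (NP-40 vs SDS abundance) is given: HeLa Kyoto cells arrested at G1/S by double thymidine block, proteins quantified by TMT10plex mass spectrometry in mild NP-40 versus SDS extracts, three biological replicates.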
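Wherever thermal stability score vs G1/S (z-score of summed log2 fold changes over temperatures) is given: synchronized HeLa Kyoto cells, proteins quantified by TMT10plex mass spectrometry, three biological replicates, mitosis taken 0.5 h after nocodazole release, G1/S directly after double thymidine block.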

Row | Sequence | melting temperature (HeLa Kyoto [1]; cell cycle stage: G1/S) | melting temperature (HeLa Kyoto [1]; cell cycle stage: mitosis) | thermal stability score (HeLa Kyoto [2]; [5]) | thermal stability score (HeLa Kyoto [2]; cell cycle stage: mitosis) | solubility in G1/S (log2) (HeLa Kyoto [3]) | solubility change mitosis (log2) (HeLa Kyoto [4])
1 | MLDFAIFAVTFLLALVGAVLYLYPASRQAAGIPGITPTEEKDGNLPDIVNSGSLHEFLVNLHERYGPVVSFWFGRRLVVSLGTVDVLKQHINPNKTSDPFETMLKSLLRYQSGGGSVSENHMRKKLYENGVTDSLKSNFALLLKLSEELLDKWLSYPETQHVPLSQHMLGFAMKSVTQMVMGSTFEDDQEVIRFQKNHGTVWSEIGKGFLDGSLDKNMTRKKQYEDALMQLESVLRNIIKERKGRNFSQHIFIDSLVQGNLNDQQILEDSMIFSLASCIITAKLCTWAICFLTTSEEVQKKLYEEINQVFGNGPVTPEKIEQLRYCQHVLCETVRTAKLTPVSAQLQDIEGKIDRFIIPRETLVLYALGVVLQDPNTWPSPHKFDPDRFDDELVMKTFSSLGFSGTQECPELRFAYMVTTVLLSVLVKRLHLLSVEGQVIETKYELVTSSREEAWITVSKRY [CYP20A1] | 54.4 °C | 55.1 °C | 0.229 | -1.11 | -0.178 | -0.0969
2 | MPGSLPLNAEACWPKDVGIVALEIYFPSQYVDQAELEKYDGVDAGKYTIGLGQAKMGFCTDREDINSLCMTVVQNLMERNNLSYDCIGRLEVGTETIIDKSKSVKTNLMQLFEESGNTDIEGIDTTNACYGGTAAVFNAVNWIESSSWDGRYALVVAGDIAVYATGNARPTGGVGAVALLIGPNAPLIFERGLRGTHMQHAYDFYKPDMLSEYPIVDGKLSIQCYLSALDRCYSVYCKKIHAQWQKEGNDKDFTLNDFGFMIFHSPYCKLVQKSLARMLLNDFLNDQNRDKNSIYSGLEAFGDVKLEDTYFDRDVEKAFMKASSELFSQKTKASLLVSNQNGNMYTSSVYGSLASVLAQYSPQQLAGKRIGVFSYGSGLAATLYSLKVTQDATPGSALDKITASLCDLKSRLDSRTGVAPDVFAENMKLREDTHHLVNYIPQGSIDSLFEGTWYLVRVDEKHRRTYARRPTPNDDTLDEGVGLVHSNIATEHIPSPAKKVPRLPATAAEPEAAVISNGEH [HMGCS1] | 54 °C | 55.2 °C | -0.19 | 3.42 | 0.0526 | -0.0813
3 | MTTPANAQNASKTWELSLYELHRTPQEAIMDGTEIAVSPRSLHSELMCPICLDMLKNTMTTKECLHRFCSDCIVTALRSGNKECPTCRKKLVSKRSLRPDPNFDALISKIYPSREEYEAHQDRVLIRLSRLHNQQALSSSIEEGLRMQAMHRAQRVRRPIPGSDQTTTMSGGEGEPGEGEGDGEDVSSDSAPDSAPGPAPKRPRGGGAGGSSVGTGGGGTGGVGGGAGSEDSGDRGGTLGGGTLGPPSPPGAPSPPEPGGEIELVFRPHPLLVEKGEYCQTRYVKTTGNATVDHLSKYLALRIALERRQQQEAGEPGGPGGGASDTGGPDGCGGEGGGAGGGDGPEEPALPSLEGVSEKQYTIYIAPGGGAFTTLNGSLTLELVNEKFWKVSRPLELCYAPTKDPK [RING1] | – | 50 °C | 0.769 | 1.05 | -0.00962 | 0.222
